Here are results for one molecule from patent US20070105771A1 (Y S THERAPEUTICS, published 2007).

Broadly, the Kd is the equilibrium constant for the complex coming apart.

Test [1] concerns the target T1, Purified recombinant human CD26 (rhDipeptidyl peptidase IV), R&D Systems CAT #1180-SE (human, UniProt P27487 29-766).
T1 construct: Bought recombinant protein; also called hu-CD26; soluble human CD26
Nature of the test: SPR (Biacore), Fab.

Test [2] concerns the target T1, Purified recombinant human CD26 …. Nature of the test: SPR (Biacore), CD26 preoccupied by the Fab; competitor 14D10 ascites. The source says: A specificity analysis of selected Fabs comprising pairs of variant VH and VL sequences was done. […] The analysis was done using Biacore® as described in Example 1.
(In general: In SPR one partner is held on a chip, and binding of the other changes the refractive index at the surface.)

Test [3] shares this target. The test can be described thus: SPR (Biacore), CD26 on CM5 chip, Fab injected. On the procedure: (§1) Fabs produced in E. coli as described below were diluted in PBS in a concentration of ˜0.5 μM for the assay. A typical recording included a 3 minute period of injection of the Fab followed by a period of 15 minutes of dissociation, and analysis was performed based on the raw data of the binding curves accordingly.

For test [4] the target is unchanged. Nature of the test: SPR (Biacore), Fab. On the procedure: as §1
The CD26 binding partner was as shown below.
This is another data set of the same source.

For test [5] the target is unchanged. Nature of the test: SPR (Biacore), Fab. This is another data set of the same source.
For test [6] the target is unchanged. Nature of the test: SPR (Biacore), Fab. On the procedure:
as §1
This is another data set of the same source.

“And” between values parts separate entries of the source, which are not always exact repeats. Identical values can stand only once.

T1 sequence (P27487 29-766 limits assumed): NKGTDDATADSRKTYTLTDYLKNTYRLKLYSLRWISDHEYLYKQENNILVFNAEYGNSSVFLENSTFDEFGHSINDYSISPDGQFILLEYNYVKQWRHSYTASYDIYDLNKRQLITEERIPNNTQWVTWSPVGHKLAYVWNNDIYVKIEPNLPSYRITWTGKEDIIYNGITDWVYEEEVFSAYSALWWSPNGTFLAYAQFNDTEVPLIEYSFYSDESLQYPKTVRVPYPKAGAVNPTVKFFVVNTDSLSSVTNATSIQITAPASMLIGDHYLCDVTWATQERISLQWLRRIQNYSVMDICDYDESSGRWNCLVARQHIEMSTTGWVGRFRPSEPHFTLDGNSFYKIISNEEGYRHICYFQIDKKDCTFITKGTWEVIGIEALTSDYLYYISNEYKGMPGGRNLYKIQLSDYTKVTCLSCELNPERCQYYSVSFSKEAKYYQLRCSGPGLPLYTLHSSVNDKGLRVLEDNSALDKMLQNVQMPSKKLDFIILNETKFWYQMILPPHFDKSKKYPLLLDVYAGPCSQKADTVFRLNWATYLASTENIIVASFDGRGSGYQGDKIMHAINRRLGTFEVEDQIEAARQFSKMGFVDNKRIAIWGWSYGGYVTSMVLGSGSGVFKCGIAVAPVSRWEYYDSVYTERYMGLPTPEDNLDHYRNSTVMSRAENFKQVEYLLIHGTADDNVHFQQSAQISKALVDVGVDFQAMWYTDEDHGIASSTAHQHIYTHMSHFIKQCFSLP

B1: CM03 Fab X369 (Fab, V domains shown)
VH: QVKLQESGPGLVQPSQTLSITCTVSGFSLTTYGVHWVRQSPGKGLEWLGVIWGGGRTDYDAAFISRLSISKDNSKSQVFFKMNSLQANDTAIYYCVRNRHDWFDYWGQGTTVTVSS
VL: DIQMTQSPSSLSASLGDRVTITCSASQGIRNSLNWYQQKPDGAVKLLIYYSSNLHSGVPSRFSGSGSGTDFSLTISNLEPEDIATYYCQQSIKLPFTFGSGTKLEIK
notes: Recombinant Fab made in E. coli; also called CM03 X369; CM03 (X369)
Turning to B1, the equilibrium dissociation constant (Kd) is 1.63 nM in test [1]; 1.63 nM in test [3]; 1.63 nM in test [4]; 1.63 nM and 1.6 nM in test [5]; 1.63 nM in test [6]. Further, the “percent decrease in binding of 14D10 to CD26” value in test [2] is at least 80%.
